Results taken from patent US20210179716A1 (Pfizer, published 2021).
Positions count from the first letter of the chain named. Read-outs that look alike come from different tables or passages of the source.

T1: mouse CD47 protein (mouse, UniProt Q61735 19-140, limits assumed)
T1 sequence (looked up): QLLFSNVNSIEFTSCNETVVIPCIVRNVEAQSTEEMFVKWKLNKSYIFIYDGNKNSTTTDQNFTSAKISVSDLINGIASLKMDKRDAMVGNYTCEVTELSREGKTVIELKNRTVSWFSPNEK

B1: CD47_P01A11_parent (antibody, V domains shown)
VH: QVQLVQSGAEVKKPGSSVKVSCKASGYTFTNYAISWVRQAPGQGLEWMGGISPLFGTANYAQKFQGRVTITADESTSTAYMELSSLRSEDTAVYYCARDGGRSSDVGWYVGAMDVWGQGTLVTVSS
VL: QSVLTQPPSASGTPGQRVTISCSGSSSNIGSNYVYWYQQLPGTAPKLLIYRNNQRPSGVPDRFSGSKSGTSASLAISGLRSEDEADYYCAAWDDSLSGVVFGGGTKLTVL
notes: also called P01A11_wt
B2: CD47_P01A11_497 (antibody, V domains shown)
VH: B1 VH with Y27G, N31S, L54I, G100A, M113L
VL: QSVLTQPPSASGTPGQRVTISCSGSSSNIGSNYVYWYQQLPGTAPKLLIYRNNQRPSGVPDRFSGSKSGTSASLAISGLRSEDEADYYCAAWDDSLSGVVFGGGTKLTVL
notes: Monospecific antibody
B3: CD47_P01A11_75 (antibody, V domains shown)
VH: B1 VH with T30S, N31S, L54I, G100A, M113I
VL: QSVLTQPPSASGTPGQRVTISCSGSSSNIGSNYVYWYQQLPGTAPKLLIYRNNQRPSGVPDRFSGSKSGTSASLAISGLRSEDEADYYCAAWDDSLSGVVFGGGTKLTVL
notes: Monospecific antibody; also called anti-CD47 antibody P01A11_75

Tests used:
cynomolgus CD47 protein [1] = biological target: T2, cynomolgus CD47 protein (cynomolgus monkey, UniProt A0A2K5X523 19-139); experiment: KD; method not stated
T2 construct: also called cyCD47; Cyno CD47

cynomolgus CD47 protein [2] = biological target: T2, cynomolgus CD47 protein; experiment: KD; method not stated; remark: listed apart in the source
cynomolgus CD47 protein [3] = biological target: T2, cynomolgus CD47 protein; experiment: half-life of the complex; method not stated
mouse CD47 protein = biological target: T1, mouse CD47 protein; experiment: column 'Cross-react with mouse'; method not stated
human CD47 protein [4] = biological target: T3, human CD47 protein (human, UniProt Q08722 19-139, limits assumed); experiment: KD; method not stated
T3 construct: Soluble protein used for the KD measurements; construct not described; also called hCD47; CD47 (human)

cynomolgus CD47 protein [5] = biological target: T2, cynomolgus CD47 protein; experiment: KD; method not stated; remark: listed apart in the source
human CD47 protein [6] = biological target: T3, human CD47 protein; experiment: half-life of the complex; method not stated
cynomolgus CD47 protein [7] = biological target: T2, cynomolgus CD47 protein; experiment: half-life of the complex; method not stated; remark: listed apart in the source
[8] = biological target: T4, human CD47 on the cell surface (human); experiment: flow cytometry, CHO cells stably overexpressing human CD47; positive control
T4 construct: whole, on cells; also called CHO-hCD47; CD47 on HT1080 tumor cells

T3 sequence (Q08722 19-139 limits assumed): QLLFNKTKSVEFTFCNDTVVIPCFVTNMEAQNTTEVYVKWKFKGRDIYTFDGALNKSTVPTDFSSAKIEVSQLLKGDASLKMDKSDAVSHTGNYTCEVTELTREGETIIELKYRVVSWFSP

Binder | Kd (cynomolgus CD47 protein [1]) [nM] | Kd (cynomolgus CD47 protein [2]) [nM] | T1/2 (cynomolgus CD47 protein [3]) [s] | Kd (mouse CD47 protein) [nM] | Kd (human CD47 protein [4]) [nM] | Kd (cynomolgus CD47 protein [5]) [nM] | T1/2 (human CD47 protein [6]) [s] | T1/2 (cynomolgus CD47 protein [7]) [s] | EC50 [8] [nM]
B1 | 1.02 | 1.3 | 1270 | > 6800 | – | – | – | – | –
B2 | – | – | – | – | 497 | 704 | – | – | –
B3 | – | – | – | – | 75 | 105 | 29.4 | 28.8 | 0.98
